Consider 6 molecules from article PMC10771500, “Ton motor conformational switch and peptidoglycan role in bacterial nutrient uptake” (Nature Communications, 2024).

B1: ExbD construct from E. coli lacking the N-terminal residues 43-60 (ExbD^(Ec, ΔNIBS)) (domain or fragment, Escherichia coli, UniProt P0ABV2 61-141, looked up)
chain: EKPVYLSVKADNSMFIGNDPVTDETMITALNALTEGKKDTTIFFRADKTVDYETLMKVMDTLHQAGYLKIGLVGEETAKAK
notes: ExbD of Escherichia coli, periplasmic domain (43-141) lacking the N-terminal residues 43-60; the limits 61-141 are worked out from these two statements; not shown: His-tag, N-terminal, cleaved
B2: periplasmic domain of ExbD from Escherichia coli, residues 43-141 (ExbD^(Ec, peri)) (domain or fragment, UniProt P0ABV2 43-141, looked up)
chain: VDVKVNLPASTSTPQPRPEKPVYLSVKADNSMFIGNDPVTDETMITALNALTEGKKDTTIFFRADKTVDYETLMKVMDTLHQAGYLKIGLVGEETAKAK
notes: ExbD of Escherichia coli, periplasmic domain, residues 43-141; not shown: His-tag, N-terminal, cleaved

Data set [1] concerns the molecule itself. As to the kind of experiment: crystal structure; 2 mM ExbD^(Ec, ΔNIBS) with 10 mM TonB peptide in 50 mM Tris-HCl, 50 mM NaCl, pH 7.0; crystals in 10% w/v glycerol and 3 M ammonium sulfate, 18 °C; 1.5 Å.
Data set [2] deals with the molecule itself. As to the kind of experiment: AUC; sedimentation velocity, 100 μM ExbD^(Ec, peri) with 300 μM TonB peptide, 42000 rpm overnight, 50 mM sodium phosphate, 50 mM NaCl, pH 7.0.
Data set [3] concerns the target T1, periplasmic part of TonB from Escherichia coli, residues 34-239 (TonB^(Ec, peri)) (Escherichia coli, UniProt P02929 34-239).
T1 construct: TonB of Escherichia coli, residues 34-239; 15N-labelled in the NMR experiment; not shown: His-tag, N-terminal, cleaved
As to the kind of experiment: NMR titration; 2D [1H-15N]-TROSY spectra of 15N-labeled HasB^(Sm, peri) or TonB^(Ec, peri) alone and upon addition of the unlabeled ExbD periplasmic domain; 293 K. To be noted: both partners purified.

Data set [4] concerns the molecule itself. As to the kind of experiment: NMR spectra of a disulfide-bridged mutant; NMR fingerprint spectra of the V47C mutants compared with the wild type (Supplementary Fig. 7).
Data set [5] concerns the molecule itself. Briefly: AUC; sedimentation velocity, 100 μM ExbD alone, 42000 rpm overnight, 50 mM sodium phosphate, 50 mM NaCl, pH 7.0; c(S) model in SEDFIT.
In data set [6] the target is T2, periplasmic part of HasB from Serratia marcescens, residues 37-263 (HasB^(Sm, peri)) (Serratia marcescens, UniProt Q79AD1 37-263).
T2 construct: HasB, the TonB paralog of the Heme Acquisition System of Serratia marcescens, residues 37-263; 15N-labelled in the NMR experiment; also called HasB_(37-263, Sm); source: bacterial expression (20 h at 30 °C), purified (cation exchange, SEC)
T2 sequence (looked up): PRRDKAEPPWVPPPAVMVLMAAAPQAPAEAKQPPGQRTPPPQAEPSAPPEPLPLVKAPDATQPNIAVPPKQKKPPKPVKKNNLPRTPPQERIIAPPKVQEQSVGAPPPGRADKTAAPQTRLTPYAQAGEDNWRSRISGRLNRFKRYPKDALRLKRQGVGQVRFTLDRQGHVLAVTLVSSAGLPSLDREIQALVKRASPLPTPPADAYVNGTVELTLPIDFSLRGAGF
As to the kind of experiment: NMR titration; 2D [1H-15N]-TROSY spectra of 15N-labeled HasB^(Sm, peri) or TonB^(Ec, peri) alone and upon addition of the unlabeled ExbD periplasmic domain; 293 K. Particulars: both partners purified.

In data set [7] the target is B2. Briefly: NMR titration; 2D [1H-15N]-HMQC spectra of 15N-labeled ExbD periplasmic domain with and without the HasB or TonB peptide; 293 K. Particulars: both partners purified.
The target in data set [8] is B1. As to the kind of experiment: crystal structure; 2 mM ExbD^(Ec, ΔNIBS) with 10 mM TonB peptide in 50 mM Tris-HCl, 50 mM NaCl, pH 7.0; crystals in 10% w/v glycerol and 3 M ammonium sulfate, 18 °C; 1.5 Å. To be noted: both partners purified.

T1 sequence (P02929 34-239): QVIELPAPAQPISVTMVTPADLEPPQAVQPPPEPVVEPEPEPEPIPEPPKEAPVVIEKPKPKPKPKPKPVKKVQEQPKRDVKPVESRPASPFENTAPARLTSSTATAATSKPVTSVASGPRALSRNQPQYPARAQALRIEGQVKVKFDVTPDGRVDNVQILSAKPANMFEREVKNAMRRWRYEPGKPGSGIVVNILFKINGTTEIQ

For B1, the binding result in data set [1] was “binds”.
In the case of B2, the “stoichiometry N” value in data set [2] came to 2. Besides, the binding result in data set [3] was “binds”.

B3: ExbD^(Ec, peri) V47C (domain or fragment, Escherichia coli, UniProt P0ABV2 43-141, looked up)
chain: VDVKCNLPASTSTPQPRPEKPVYLSVKADNSMFIGNDPVTDETMITALNALTEGKKDTTIFFRADKTVDYETLMKVMDTLHQAGYLKIGLVGEETAKAK
modifications: disulfide bridge between the Cys 47 of the two subunits
notes: ExbD of Escherichia coli, periplasmic domain, residues 43-141, with V47C; not shown: His-tag, N-terminal, cleaved
For the molecule B3, the binding result in data set [4] is “binds”.

B4: periplasmic domain of ExbD from Serratia marcescens, residues 43-140 (ExbD^(Sm, peri)) (domain or fragment, UniProt V5YUQ0 43-140, looked up)
chain: VDIRVDLPASSAKPQPRPEKPVFLSVKADKQLYVGDQPVNADQLTSVLDQRTQANKETTIFFQADKSVDYETLMSVMDTLRKAGYLKVGLVGMEGAAK
notes: ExbD of Serratia marcescens (Has system), periplasmic domain, residues 43-140; 15N- or 13C,15N-labelled in the NMR samples; also called ExbD^(Sm, peri) wild type (wt); not shown: His-tag, N-terminal, cleaved
For B4, in data set [5], the “stoichiometry N” value worked out at 2. Also, the binding result in data set [6] is “binds”.

B5: ExbD^(Sm, peri) V47C (domain or fragment)
chain: VDIRCDLPASSAKPQPRPEKPVFLSVKADKQLYVGDQPVNADQLTSVLDQRTQANKETTIFFQADKSVDYETLMSVMDTLRKAGYLKVGLVGMEGAAK
modifications: disulfide bridge between the Cys 47 of the two subunits
notes: ExbD of Serratia marcescens, periplasmic domain, residues 43-140, with V47C; also called disulfide-bridged ExbD^(Sm, peri) V47C mutant; not shown: His-tag, N-terminal, cleaved
With B5, the binding result in data set [4] is “binds”.
With KKAQPISVTMVTPADLEPPQAKK (Probably a synthetic peptide) [TonB peptide (KKAQPISVTMVTPADLEPPQAKK)], the binding result in data set [7] and in data set [8] was “binds” throughout.
